Measurements reported in patent US20250326818A1 (UNIVERSIT T BASEL, published 2025).

Target: T1, CD123 ECD E51T (human, UniProt P26951 19-305)
T1 construct: Recombinant ECD
T1 sequence: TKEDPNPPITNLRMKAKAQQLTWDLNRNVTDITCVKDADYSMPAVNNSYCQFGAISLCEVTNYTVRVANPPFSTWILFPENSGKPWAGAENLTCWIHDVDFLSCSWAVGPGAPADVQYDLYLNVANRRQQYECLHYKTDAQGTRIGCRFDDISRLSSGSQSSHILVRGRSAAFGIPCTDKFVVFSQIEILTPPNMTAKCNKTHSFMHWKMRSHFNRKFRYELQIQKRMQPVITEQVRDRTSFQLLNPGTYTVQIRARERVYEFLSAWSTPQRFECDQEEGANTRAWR
Test: BLI (Octet), biotinylated CD123 ECD captured on streptavidin tips, hIL3 as analyte, level at 250 s normalised to loading
Experimental: Binding of hIL3 (SinoBiological, PN: 11858-H08H) (analyte) to CD123 ECD wt. and variants (ligands) was performed using Streptavidin capture biosensor (SA) (Sartorius, PN: 18-5019). CD123 ECD wt. and variants were biotinylated using Biotinylation kit Type B (Abeam, PN: ab201796) following manufacturer instructions. Biotinylated CD123 ECD wt. and variants (ligands) were captured on SA tips for 1000 s to achieve a nm shift of 1.5 to 2 nm. Analyte hIL3 was titrated at 7 concentrations from 500 to 7.8 nM. Association to analyte was monitored for 300 s and dissociation for 120 s. Buffer only well was used as reference. No regeneration was performed, and a new set of tips was used for each biotinylated captured ligand. Data were analyzed using the Octet Data Analysis software HT 12.0. Due to the fast on/off nature of the interaction data were analyzed using Steady state analysis. Qualitative representation in FIG. 11 binding level were taken at 250 s association for all concentrations.

- binding result: binds
B1: hIL3 (ligand, human, UniProt P08700 20-152, looked up)
chain: APMTQTTPLKTSWVNCSNMIDEIITHLKQPPLPLLDFNNLNGEDQDILMENNLRRPNLEAFNRAVKSLQNASAIESILKNLLPCLPLATAAPTRHPIHIKDGDWNEFRRKLTFYLKTLENAQAQQTTLSLAIF
notes: also called Interleukin-3
